Some targets named below: LPA1 receptor (Homo sapiens, UniProt Q92633); LPA2 receptor (Homo sapiens, UniProt Q9HBW0); LPA4 receptor (Homo sapiens, UniProt Q99677); LPA5 receptor (Homo sapiens, UniProt Q9H1C0).
Holding throughout (assay): cell-based or functional assay
The target in test [1] is LPA1 receptor endogenous to Xenopus oocytes (Xenopus laevis).
Test [2] has as its target T1, LPA3 receptor (wild-type) (human) (UniProt Q9UBY5).
T1 sequence (looked up): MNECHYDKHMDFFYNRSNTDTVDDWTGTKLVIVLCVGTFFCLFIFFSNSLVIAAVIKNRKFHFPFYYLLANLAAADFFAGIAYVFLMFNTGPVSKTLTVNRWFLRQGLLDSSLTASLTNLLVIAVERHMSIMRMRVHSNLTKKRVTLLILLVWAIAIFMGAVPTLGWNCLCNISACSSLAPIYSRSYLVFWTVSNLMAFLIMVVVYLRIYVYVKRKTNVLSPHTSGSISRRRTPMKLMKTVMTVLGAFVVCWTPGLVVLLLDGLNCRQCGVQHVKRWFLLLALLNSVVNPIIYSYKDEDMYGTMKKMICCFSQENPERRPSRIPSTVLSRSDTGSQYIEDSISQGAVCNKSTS

Sequence of LPA2 receptor (Q9HBW0 whole entry): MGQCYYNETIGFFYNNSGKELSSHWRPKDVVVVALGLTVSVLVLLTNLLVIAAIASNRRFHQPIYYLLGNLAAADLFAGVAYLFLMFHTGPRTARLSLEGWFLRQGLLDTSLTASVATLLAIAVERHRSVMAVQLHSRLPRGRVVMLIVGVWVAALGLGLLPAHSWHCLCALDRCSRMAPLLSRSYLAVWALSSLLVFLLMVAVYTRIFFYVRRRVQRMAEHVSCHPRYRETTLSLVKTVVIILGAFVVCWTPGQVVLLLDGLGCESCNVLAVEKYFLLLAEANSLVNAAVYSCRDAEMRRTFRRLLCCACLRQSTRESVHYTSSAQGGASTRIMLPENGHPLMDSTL
Sequence of LPA5 receptor (Q9H1C0 whole entry): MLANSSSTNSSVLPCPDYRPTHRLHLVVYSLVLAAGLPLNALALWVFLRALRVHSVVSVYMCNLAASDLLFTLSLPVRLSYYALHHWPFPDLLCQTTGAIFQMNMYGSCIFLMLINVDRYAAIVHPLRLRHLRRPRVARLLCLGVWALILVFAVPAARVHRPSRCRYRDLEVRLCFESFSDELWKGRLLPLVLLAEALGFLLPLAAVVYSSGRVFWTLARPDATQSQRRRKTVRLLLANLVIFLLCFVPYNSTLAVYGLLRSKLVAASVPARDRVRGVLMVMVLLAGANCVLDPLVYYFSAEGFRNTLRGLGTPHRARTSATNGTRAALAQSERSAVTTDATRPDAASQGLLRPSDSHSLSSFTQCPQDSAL
Sequence of LPA1 receptor (Q92633 whole entry): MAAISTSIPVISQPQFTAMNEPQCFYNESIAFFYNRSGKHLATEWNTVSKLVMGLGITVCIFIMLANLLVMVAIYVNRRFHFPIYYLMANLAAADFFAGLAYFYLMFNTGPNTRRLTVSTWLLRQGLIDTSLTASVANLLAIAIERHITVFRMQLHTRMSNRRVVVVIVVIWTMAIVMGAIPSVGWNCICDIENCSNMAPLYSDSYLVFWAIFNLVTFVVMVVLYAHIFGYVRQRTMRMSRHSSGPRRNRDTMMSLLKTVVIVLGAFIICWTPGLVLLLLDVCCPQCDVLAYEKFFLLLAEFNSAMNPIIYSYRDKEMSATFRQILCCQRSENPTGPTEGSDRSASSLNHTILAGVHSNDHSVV
Sequence of LPA4 receptor (Q99677 whole entry): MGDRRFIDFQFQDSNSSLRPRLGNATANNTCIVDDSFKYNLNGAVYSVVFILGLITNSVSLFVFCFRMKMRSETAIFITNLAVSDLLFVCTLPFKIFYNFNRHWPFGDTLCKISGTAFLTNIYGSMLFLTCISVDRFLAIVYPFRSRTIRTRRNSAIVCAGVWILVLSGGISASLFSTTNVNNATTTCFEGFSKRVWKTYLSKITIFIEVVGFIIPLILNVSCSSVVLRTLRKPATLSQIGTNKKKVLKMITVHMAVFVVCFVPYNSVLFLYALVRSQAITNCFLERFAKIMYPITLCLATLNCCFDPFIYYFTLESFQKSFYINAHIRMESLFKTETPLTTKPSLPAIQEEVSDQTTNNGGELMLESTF

B1: glycolipoprotein gintonin isolated from ginseng (ligand)
chain 1: MGLTGKLICQTGIKSDGDVFHELFGTRPHHVPNITPANIQGCDLHEGEFGKVGSVVIWNYSIDGNAMIAKEEIVAIDEEDKSVTFKVVEGHLFEEFKSIVFSVHVDTKGEDNLVTWSIDYEKLNESVKDPTSYLDFLLSVTRDIEAHHLPK
chain 2: RSDYPWAMFALRLQWPAGFCEVNNACDTKSLLNTFTIHGLYPYNAKGTPALYCDGTAFDVNSVSDFLAEMHLAWPSHETNTEDIQFWEHEWKKHGRCSEALLKQTDYFRTALAFRKAFDIVGLLNQEGIYPNNDLYRPKMIKEAIKKHLNAVPEIDFTKNENSEYVLTDINVCVNQQATRFVDCPTDDATDDYRLKFVRLPSKMKFADPRTNSII
modifications: three N-glycosylation sites (positions not numbered in the text); bound sugars and lipids
Consider B1, for which the EC50 of LPA receptor-mediated intracellular calcium increase in B103 cells in the test with LPA1 receptor worked out at 0.1 nM; with LPA2 receptor, 4 pM; in test [2] it was 0.12 nM; in the test with LPA5 receptor it was 0.046 nM. In addition, the increase of intracellular calcium level in receptor-expressing B103 cells, gintonin 1 µg/ml (Fura-2AM) in the test with LPA1 receptor is 186 nM; with LPA2 receptor it was 208 nM; in test [2], 206 nM; in the test with LPA5 receptor, 298 nM. Further, in test [1], the ED50 of gintonin-induced NMDA receptor-mediated inward currents in NMDA receptor-expressing Xenopus oocytes was 0.49 µg/mL. Moreover, the ED50 of gintonin-induced activation of BKCa K+ channels expressed in Xenopus oocytes in test [1] is 0.71 µg/mL. In addition, the increase of intracellular calcium level in receptor-expressing B103 cells upon treatment with gintonin (Fura-2AM) in the test with LPA4 receptor was 61.6 nM.

The values above are taken from patent US20140234868A1, “USE FOR GLYCOLIPOPROTEIN GINTONIN, ISOLATED AND IDENTIFIED FROM GINSENG, AS A NATURAL MEDICAL-PLANT DERIVED LIGAND” (KONKUK UNIVERSITY INDUSTRIAL COOPERATION CORP., priority 2011, published 2014).
